In US20100093623A1, “COMPOSITIONS AND METHODS FOR […]-LIKE RECEPTOR ACTIVITY AND USES THEREOF” (Burnham Institute for Medical Research, priority 2008, published 2010):
Several values for one entry are separate records, joined by “and”; a condition that tells them apart may be missing. Equal values may be shown once. Entries after “also recorded” stand apart in the source; their conditions may differ. No end group written: not given here.

What was measured:
[1] = molecular target: T1, NLRP1 (Homo sapiens, UniProt Q9C000); assay: in vitro reconstituted NLRP1 inflammasome: Caspase-1 activity by hydrolysis of Ac-WEHD-AMC; assay type: biochemical; settings: for Km: GST-Bcl-2 or GST-Bcl-XL 2 nM, control without inhibitor 2.62±0.35 μM, read-out: Km of Caspase-1 for its substrate Ac-WEHD-AMC in presence of inhibitor; for reduction of affinity (Km) of Caspase-1 for Ac-WEHD-AMC compared to control: in presence of Bcl-2 or Bcl-XL; for Ki: recombinant GST-fusion protein, calculated from Km with/without 2 nM inhibitor, competitive inhibition equation, read-out: inhibitory constant (Ki) for suppression of NLRP1 (NLRP1-induced Caspase-1 activation); for concentration-dependence of inhibition of NLRP1-induced Caspase-1 activity: various concentrations of protein or peptide, NLRP1 8.5 nM; for mechanism of NLRP1 inhibition (Lineweaver-Burke analysis): x-axis intercept changed, y-axis intercept unchanged; for IC50: synthetic Bcl-2 peptides, various amounts, sigmoidal fit, read-out: IC50 (concentration to inhibit NLRP1-induced Caspase-1 activity by 50%)
T1 sequence (Q9C000 1-1473): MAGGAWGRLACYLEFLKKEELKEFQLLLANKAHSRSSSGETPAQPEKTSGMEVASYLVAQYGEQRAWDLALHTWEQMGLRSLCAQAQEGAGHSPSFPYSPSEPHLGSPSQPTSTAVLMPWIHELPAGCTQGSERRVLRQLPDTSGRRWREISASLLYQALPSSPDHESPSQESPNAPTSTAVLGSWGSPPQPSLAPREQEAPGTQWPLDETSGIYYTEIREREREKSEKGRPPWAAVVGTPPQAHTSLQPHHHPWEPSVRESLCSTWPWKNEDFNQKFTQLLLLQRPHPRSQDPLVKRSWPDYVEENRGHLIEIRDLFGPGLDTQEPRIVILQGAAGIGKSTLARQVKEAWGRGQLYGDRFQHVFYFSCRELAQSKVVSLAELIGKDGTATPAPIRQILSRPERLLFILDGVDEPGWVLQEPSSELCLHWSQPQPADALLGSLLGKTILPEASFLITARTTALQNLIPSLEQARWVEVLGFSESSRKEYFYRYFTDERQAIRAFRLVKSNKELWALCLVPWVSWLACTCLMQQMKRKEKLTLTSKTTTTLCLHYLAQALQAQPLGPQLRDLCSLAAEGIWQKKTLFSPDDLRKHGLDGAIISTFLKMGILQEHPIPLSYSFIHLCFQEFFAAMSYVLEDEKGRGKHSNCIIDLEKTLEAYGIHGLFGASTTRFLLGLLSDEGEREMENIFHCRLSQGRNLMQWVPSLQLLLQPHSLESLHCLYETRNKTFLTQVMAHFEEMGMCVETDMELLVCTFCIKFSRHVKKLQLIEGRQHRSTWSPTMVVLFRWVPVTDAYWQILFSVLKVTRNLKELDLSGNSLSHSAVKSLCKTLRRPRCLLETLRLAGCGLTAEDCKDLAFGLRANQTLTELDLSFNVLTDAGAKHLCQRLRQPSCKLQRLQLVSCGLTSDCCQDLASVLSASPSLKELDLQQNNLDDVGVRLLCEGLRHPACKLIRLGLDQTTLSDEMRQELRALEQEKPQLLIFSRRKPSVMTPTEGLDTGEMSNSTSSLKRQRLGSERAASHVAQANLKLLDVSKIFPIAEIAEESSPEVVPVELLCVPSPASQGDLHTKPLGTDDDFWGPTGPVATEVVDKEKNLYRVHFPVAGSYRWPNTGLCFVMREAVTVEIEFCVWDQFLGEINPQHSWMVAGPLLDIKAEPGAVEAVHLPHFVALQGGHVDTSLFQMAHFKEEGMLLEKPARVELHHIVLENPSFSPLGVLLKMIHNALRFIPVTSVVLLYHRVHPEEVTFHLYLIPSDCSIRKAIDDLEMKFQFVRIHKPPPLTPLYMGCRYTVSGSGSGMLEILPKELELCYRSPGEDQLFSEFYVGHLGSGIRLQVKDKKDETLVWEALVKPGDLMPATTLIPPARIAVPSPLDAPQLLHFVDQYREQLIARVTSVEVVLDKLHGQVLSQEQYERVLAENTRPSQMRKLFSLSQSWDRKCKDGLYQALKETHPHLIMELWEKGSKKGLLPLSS

[2] = molecular target: T1, NLRP1; assay: NLRP1-mediated proteolytic processing of pro-Caspase-1 (anti-p10 immunoblot); assay type: biochemical; settings: molar ratio NLRP1/protein 1/5
[3] = molecular target: T2, Caspase-1 (Homo sapiens, UniProt P29466); assay: activity of purified active p10/p20 Caspase-1 (direct effect); assay type: biochemical; settings: active p10/p20 Caspase-1 5 nM; test protein/peptide at excess; Ac-WEHD-CHO 10 nM
T2 construct: fully active, proteolytically processed Caspase-1 comprised of p20 and p10 catalytic subunits purified from bacteria; made in house; host or cells: bacteria
T2 sequence (P29466 120-297 limits assumed): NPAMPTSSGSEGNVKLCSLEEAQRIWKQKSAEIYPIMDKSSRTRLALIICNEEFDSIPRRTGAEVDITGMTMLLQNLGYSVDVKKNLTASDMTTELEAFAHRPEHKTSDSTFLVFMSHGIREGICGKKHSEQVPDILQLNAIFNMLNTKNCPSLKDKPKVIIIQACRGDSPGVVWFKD
T2 sequence (P29466 317-404 limits assumed): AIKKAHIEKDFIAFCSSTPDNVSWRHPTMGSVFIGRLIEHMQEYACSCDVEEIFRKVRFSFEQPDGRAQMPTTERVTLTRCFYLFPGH
Procedure: (§1) FIGS. 16A-16E show Bcl-2 Loop peptide inhibits NLRP1. […] Asterisk indicates p<0.05. (B) Purified active p10/p20 Caspase-1 (5 nM) was incubated with or without Bcl-2 Loop peptide 35-83 or Ac-WEHD-CHO (10 nM). […] Asterisks indicate p<0.05.
Caspase activity measurements. […] Proteins were mixed in Caspase-1 buffer (100 mM HEPES, [pH 7.5], 10% Sucrose, 0.1% CHAPS, 1 mM Dithiothreitol) in a final volume of 10 μl in 96-well plates. Various activators were added (ATP, Mg^2+, MDP-LD), adjusting final volume with water. Samples were then incubated for 30 min at 37° C. and Caspase-1 activity was measured using 20 μM fluorometric substrate Ac-WEHD-AMC (Calbiochem). Release of AMC product was monitored continuously by spectrofluorometry in kinetic mode over 1 h at 25-27° C. Rates of catalysis were calculated using the initial slope and Caspase activity was expressed as the change in fluorescence over time derived from the linear phase of reactions. Data were analyzed using the PRISM Statistics software, employing an unpaired t test.
To exclude a direct effect of Bcl-2 and Bcl-XL on Caspase-1, as opposed to NLRP1, the effects of these anti-apoptotic proteins were tested on fully active, proteolytically processed Caspase-1 comprised of p20 and p10 catalytic subunits purified from bacteria (FIG. 11).

[4] = molecular target: T1, NLRP1; assay: NLRP1 oligomerization induced by MDP and ATP, 2D native/SDS gel electrophoresis; assay type: biochemical; settings: protein at excess (1/10 molar ratio)
Procedure: Electrophoresis. Samples were incubated with protein solubilizing solution (40 mM 6-aminocaproic acid, 20 mM Bis-tris) for 30 min at 4° C., mixed with loading buffer (1M 6-aminocaproic acid, 5% Serva blue G), and applied to acrylamide-bis gradient (4-20%) gels (Schagger et al., (1994) Anal Biochem 217, 220-30). Bands of gels corresponding to the entire lane were excised from top to the bottom, incubated 45 min at 25-27° C. in denaturating buffer (1% β-mercaptoethanol, 10% SDS), then washed twice in equilibrating buffer (50 mM Tris. 1% SDS). Bands from gels were set horizontally on a SDS-acrylamide gel, and proteins were separated by electrophoresis (second dimension), then stained with Sypro Ruby. Molecular weight markers included Thyroglobuline, Apoferritin, β-Amylase and BSA (Sigma).
Oligomerization of NLRP1 induced by MDP and ATP can be monitored using 2D gel-electrophoresis analysis, in which the first dimension is non-denaturing and thus preserves macromolecular complexes during electrophoresis and the second dimension contains SDS for subsequent identification of proteins based on their known molecular mass (Faustin, 2007). For these experiments, NLRP1 monomers were incubated with various proteins (GST, GST-Bcl-XL, His6-Bcl-XLΔLoop) at excess, then MDP and ATP were added to induce oligomerization (FIG. 15). […]

[5] = molecular target: T1, NLRP1; assay: FITC-ATP binding to NLRP1 by fluorescence polarization assay (FPA); settings: protein 1 μM at excess; NLRP1 0.125 μM; FITC-ATP 10 nM; MDP-LD 1 μM
[6] = tested on: NLRP1ΔLRR; assay: Caspase-1 activation by NLRP1ΔLRR mutant; assay type: biochemical; settings: peptide 50 nM; Ac-WEHD-CHO 10 nM; NLRP1ΔLRR 8.5 nM
Procedure: as §1
To characterize the sequence of the Bcl-2 loop responsible for inhibiting NLRP1, a series of overlapping 20′mer peptides corresponding to the 35-83 region were synthesized and tested their effects on NLRP1-mediated Caspase-1 activation. […] The effects of the full-loop peptide (35-83) and the active segment (71-90) were specific, as determined by experiments using a NLRP1 mutant lacking the LRRs. […] Finally, the concentration-dependence of NLRP1 inhibition by the 35-83 and 71-90 loop peptides were compared.

Substance | Km [1] | reduction of affinity (Km) of Caspase-1 for Ac-WEHD-AMC compared to control [1] | Ki [1] | concentration-dependence of inhibition of NLRP1-induced Caspase-1 activity [1] | mechanism of NLRP1 inhibition (Lineweaver-Burke analysis) [1] | MDP/ATP-induced proteolytic processing of pro-Caspase-1 to cleaved p10 subunit [2] | direct effect on activity of fully active processed Caspase-1 [3] | oligomerization of NLRP1 induced by MDP/ATP [4] | reduction of FITC-ATP binding to NLRP1 [5] | IC50 [1] | Caspase-1 activation by NLRP1ΔLRR [6]
Bcl-XL: anti-apoptotic protein; recombinant GST-fusion lacking C-terminal transmembrane domain | 6.05 ± 0.24 µM | 2 fold | ~0.01 µM and 0.01 µM | essentially complete inhibition | competitive inhibitors of NLRP1 | inhibited | neither Bcl-2 nor Bcl-XL suppressed Caspase-1 activity | suppressed oligomerization of NLRP1 | ~60% | – | –
VGAAPPGAAPAPGIFSSQPGHTPHPAASRDPVARTSPLQTPAAPGAAAG [Bcl-2 Loop 35-83] | – | – | – | reducing Caspaes-1 activity to background levels | – | – | did not directly inhibit Caspase-1 | – | – | 0.0114 µM and ~0.012 µM | neither the 35-83 nor the 71-90 loop peptides suppressed Caspase-1 activation by NLRP1ΔLRR
YDNREIVMKYIHYKLSQRGYEW (Synthetic Bcl-2 Loop peptides) [Bcl-2 BH4 domain 9-30, control peptide, reference compound] | – | – | – | negligible activity | – | – | – | – | – | – | –
Bcl-2: anti-apoptotic protein; recombinant GST-fusion lacking C-terminal transmembrane domain (SEQ ID NO:3/4) | 5.04 ± 0.5 µM | 2 fold | ~0.01 µM and 0.00823 µM and 0.01 µM | essentially complete inhibition | competitive inhibitors of NLRP1 | inhibited | neither Bcl-2 nor Bcl-XL suppressed Caspase-1 activity | – | ~60% | – | –
PLQTPAAPGAAAGPALSPVP [Bcl-2 71-90] | – | – | – | reducing Caspaes-1 activity to background levels | – | – | – | – | – | 0.00992 µM and ~0.01 µM | neither the 35-83 nor the 71-90 loop peptides suppressed Caspase-1 activation by NLRP1ΔLRR
GST: control protein [reference compound] | – | – | – | – | – | – | – | not affected | negligible effects | – | –
acetyl-Tryptophanyl-Glutamyl-Histidinyl-Aspartyl-aldehyde (Ac-WEHD-aldehyde; SMILES CC(=O)N[C@@H](Cc1c[nH]c2ccccc12)C(=O)N[C@@H](CCC(=O)O)C(=O)N[C@@H](Cc1c[nH]cn1)C(=O)N[C@H](C=O)CC(=O)O) [Ac-WEHD-CHO, reference compound] | – | – | – | – | – | – | completely inhibited; also recorded: potently suppressed the activity of this protease | – | – | – | completely neutralized Caspase-1 activity
